Source: paper PMC12375015

Molecular target: Cas7 of the PseCAST TniQ-Cascade (QCascade) complex (Pseudoalteromonas (Tn7016 transposon))
Assay: cryo-EM structure

stoichiometry N: 6
Substance: Cas7 of the PseCAST TniQ-Cascade (QCascade) complex (natural protein)
